Patent publication US20240409645A1
Where a chain is given by its changes, count along the chain named.

T1: mouse IL-2Rγ (mouse) (UniProt P34902)
T1 sequence (looked up): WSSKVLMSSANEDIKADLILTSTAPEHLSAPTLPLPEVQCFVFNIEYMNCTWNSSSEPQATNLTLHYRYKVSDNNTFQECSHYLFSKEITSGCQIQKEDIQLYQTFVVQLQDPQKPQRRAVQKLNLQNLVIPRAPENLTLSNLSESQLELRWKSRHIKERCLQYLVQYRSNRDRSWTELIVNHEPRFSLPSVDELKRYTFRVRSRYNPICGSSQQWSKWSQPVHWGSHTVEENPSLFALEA

T2: mouse IL-2Rα (mouse) (UniProt P01590)
T2 sequence (looked up): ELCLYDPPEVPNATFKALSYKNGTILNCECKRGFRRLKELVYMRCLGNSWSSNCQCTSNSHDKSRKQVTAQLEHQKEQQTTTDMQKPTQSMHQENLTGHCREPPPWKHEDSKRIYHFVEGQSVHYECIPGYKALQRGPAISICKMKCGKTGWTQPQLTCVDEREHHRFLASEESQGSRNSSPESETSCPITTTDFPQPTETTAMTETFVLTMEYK

B1: FJ1427_P035MP04A11 (VHH)
VHH: QVQLVESGGGLVQAGESLRLSCAASGPTASRVAVAWFRQVPGKEREFVAVVNRPGTMTKYADSVKGRFTISRDSAKNTVYLQMNSLKPEDTAVYYCAADSVPYGRPYYFQTSAGNYDYWGQGTQVTVSS
B2: FJ1427_P035MP04C11 (VHH)
VHH: B1 VHH with A14H, E16G, A29F, A35G, T56S, T69N, S74T, Q110T, N115D
B3: FJ1427_P035MP04D11 (VHH)
VHH: EVQLVESGGGLVQAGGSLRLSCAASGRTFGAVAVGWFRQVPGKEREFVAAINRSGSATKYADSVKGRFTISRDNAESPVFLQMNSLKPEDTAVYYCAADSLPYGRPYYFQTSAGEYDYWGQGTQVTVSS
B4: FJ1427_P035MP04G10 (VHH)
VHH: QVQLVESGGGWVQVGESLRLSCAPSGRTFVSGIMGWFRQAPGKEREFVARIILNSNSTRYTDSAKGRFTISRDSAKNTMYLQMDSLRPEDTAVYYCAARDRYGSGNSLSPSAYDYWGQGTQVTVSS
B5: FJ1427_P035MP04E12 (VHH)
VHH: B4 VHH with V2L, V30A, S55N, A64V, D84N, S85T
B6: FJ1427_P035MP04G11 (VHH)
VHH: B4 VHH with K43E, S55N, A64V, D84N, S85T
B7: FJ1427_P035MP04H10 (VHH)
VHH: B4 VHH with W11L, V14A, E16G, S55N, T61I, A64V
B8: FJ1427_P035MP04F11 (VHH)
VHH: B4 VHH with A40T, S55N, A64V, M79L, D84N, S85T
B9: FJ1427_P035MP04C12 (VHH)
VHH: B4 VHH with Q1E, S55N, T61I, A64V
B10: FJ1427_P035MP04H11 (VHH)
VHH: B4 VHH with L18P, A40T, S55N, A64V, D84N, S85T
B11: FJ1427_P035MP04B11 (VHH)
VHH: B4 VHH with Q1E, S55N, T61I, A64V
B12: FJ1427_P035MP04D12 (VHH)
VHH: B4 VHH with E16K, S55N, T61I, A64V
B13: 2-MP01A02 (VHH)
VHH: QVQLVESGGGLVQPGGSLRLSCATSGFTFRNNFMSWVRQAPGKGLEWVSTISYGGESTTYAESVKGRFTISRDNAKNTLYLQMNNLKPEDTAVYYCAKATSYDSIRSGSRGQGTQVTVSS
B14: FJ1427_P035MP01H05 (VHH)
VHH: B13 VHH with Q1E, T24A, R30S, G54F, E56D, Q112R
B15: FJ1427_P035MP01G04 (VHH)
VHH: B13 VHH with T24A, R30S, G54F, E56D, T59R, A75E, Y80H, Q112R
B16: FJ1427_P035MP01D03 (VHH)
VHH: B13 VHH with Q1E, K43E
B17: 8-MP01C12 (VHH)
VHH: B13 VHH with R30S, W47F, S63A, V93I, D103T, S107G, G108A, S109P
B18: FJ1427_P035MP01F03 (VHH)
VHH: B13 VHH with T24A, R30S, I105V
B19: FJ1427_P035MP01C03 (VHH)
VHH: B13 VHH with Q1E
B20: 07-MP01G08 (VHH)
VHH: EVQLVESGGGLVQAGGSLRLSCAASGRAFSMYNMGWFRQAPGKEREFVAATGWSGANTPYADSVKGRFTISRDNTQNTVYLQMNSLKPEDTATYYCAADSIRLRSDVTRIPLEYDYWGQGTQVTVSS
B21: 5-MP01F05 (VHH)
VHH: EVQLVESGGGLVQAGGSLRLSCAASIRAFTTWSMAWFRQAPGKEREYVARINVSGSVTYYADFVKGRFTISRDNAKKTMYLEMNNLKPEDTALYYCAADRTGVGTNDYNYWGQGTQVTVSS
B22: FJ1427_P035MP01H02 (VHH)
VHH: QLQLVESGGGLVQAGDSLRLSCAASGRAFSRYAVGWFRMAPGKGREFVSAINSSGANTYVLDSVKGRFTISRDNDKNTAYLQMDSLQPEDTAVYWCAATSSSYSTYEANYNVWGQGTQVTVSS
B23: FJ1427_P035MP01A01 (VHH)
VHH: EVQLVESGGGLVQAGDSLRLSCAASGRSFRNYILAWYRQAPGKEREFLAAISWLDGTLYADSVEDRFTISRDNPKNTVHLQMDNLKPEDTAVYYCAADRGPVRPVLAPDVDYWGQGTQVSVSS
B24: FJ1427_P035MP01E02 (VHH)
VHH: B23 VHH with E1Q, S120T
B25: FJ1427_P035MP01E04 (VHH)
VHH: B23 VHH with E1Q, A24V, L58F, D61N, D65G, N84G, S120T, S122A
B26: FJ1427_P035MP01G03 (VHH)
VHH: B23 VHH with E1Q, R99Q, S120T
B27: 6-MP01G05 (VHH)
VHH: QVQLQESGGGLVQAGGSLRLSCAASGRTFSSYAMGWFRQAPGKEREFVAVISWNVDNTEYTDSVKGRFTISRDNDKNMVYLQMNSLKPEDTAVYYCAADSIPLSSDMSPTATEYGYWGQGTQVTVSS
B28: 3-MP01E03 (VHH)
VHH: QVQLVESGGGLVQAGGSLRLSCTASGRTLSSYSMAWFRQAADKGREFVTAISSSGVVTHVLDSVKGRFTISRDNAKNTVYLQMNSLQPEDTALYFCAGTASSYSTYEANYNYWGQGTLVTVSS
B29: FJ1427_P035MP01B01 (VHH)
VHH: EVQLVESGGGWVQAGDSLRLSCAASGRTFRNYVMGWFRQVPGKEREFLSVITSLGGTVYADSVANRFTISRDNPKDTVYLQMDSLKPEDTAVYYCAADRGPARYISASDVDYWGQGTQVTASS
B30: FJ1427_P035MP01D04 (VHH)
VHH: B29 VHH with E1Q, A14P, T28S, S53W, V58L, Y59D, N65D, P74S, D76N, A121V
B31: 1-MP01H01 (VHH)
VHH: EVQLVESGGGLVQAGGSLRLSCAASGRTFRTHNMGWFRRAPGKEREFVAAISWNVDNTLYADSVKGRFTISRDNGRNMVYLQMNSLKPEDTAVYYCAADNIPLSSDVAATATEYDYWGQGTQVTVSS
B32: FJ1427_P035MP01F02 (VHH)
VHH: B31 VHH with E1Q, V5Q, V55I, T58K, F68S, R76G, Y80F, N100K, Y116D
B33: FJ1427_P035MP01E05 (VHH)
VHH: B31 VHH with E1Q, K43E, A50V, T58K, A108R, Y114F, D115G
B34: FJ1427_P035MP01G01 (VHH)
VHH: B31 VHH with E1Q, V5Q, G75D, Y95F, A108R, Y114F, D115G, Q122R

Target: T1, mouse IL-2Rγ (mouse)
Assay: PE binding ELISA, periplasmic extract on coated protein

| OD (PE binding ELISA) [OD450 nm] | Binder |
| --- | --- |
| 0.05 | B1 |
| 0.047 | B2 |
| 0.048 | B3 |
| 0.049 | B4 |
| 0.051 | B5 |
| 0.048 | B6 |
| 0.049 | B7 |
| 0.049 | B8 |
| 0.048 | B9 |
| 0.049 | B10 |
| 0.047 | B11 |
| 0.054 | B12 |

Target: T2, mouse IL-2Rα (mouse)
Assay: ELISA, P.E. on coated antigen

| OD (PE binding ELISA) [OD450 nm] | Binder |
| --- | --- |
| 0.046 | B13 |
| 0.046 | B14 |
| 0.047 | B15 |
| 0.048 | B16 |
| 0.045 | B17 |
| 0.045 | B18 |
| 0.045 | B19 |
| 0.046 | B20 |
| 0.046 | B21 |
| 0.047 | B22 |
| 0.046 | B23 |
| 0.046 | B24 |
| 0.046 | B25 |
| 0.048 | B26 |
| 0.046 | B27 |
| 0.046 | B28 |
| 0.046 | B29 |
| 0.045 | B30 |
| 0.048 | B31 |
| 0.046 | B32 |
| 0.046 | B33 |
| 0.053 | B34 |
